The record followed here is PMC7881012, “Human ACE2 peptide-mimics block SARS-CoV-2 pulmonary cells infection” (Communications Biology, 2021).

Ends that are not written are not given here.

First the molecules themselves.
B1: P10 (designed binder)
peptide: SALEEQYKTFLDKFMHELEDLLYQLAL
notes: also called peptide P10; source: synthetic peptide (solid-phase synthesis on rink amide resin, HPLC purified)
B2: P8 (designed binder)
peptide: SALEEQLKTFLDKFMHELEDLLYQLAL-NH2
notes: also called peptide P8
B3: P9 (designed binder)
peptide: SALEEQYKTFLDKFMHELEDLLYQLSL
notes: also called peptide P9

This assay has as its target T1, Fc-tagged 2019-nCoV RBD-SD1 (SARS-CoV-2 (2019-nCoV), UniProt P0DTC2 319-591).
T1 construct: source: bought: Sanyou Biopharmaceuticals Co. Ltd
Kind of assay: BLI. Conditions: both partners purified.
As usually defined, the Kd is the constant that tells how readily two partners part at equilibrium. Low values mean a tighter complex, high ones a looser complex. With B1, the Kd was 0.03 ± 0.01 nM.
Then B2, with 24 ± 11 nM; and B3, with 0.09 ± 0.08 nM.
